Consider one molecule from patent US20210244768A1, “CELL COMPOSITIONS AND USES THEREOF” (THE UNIVERSITY OF SYDNEY, priority 2018, published 2021).

The test system of one test is PAVB expression. Description: qPCR of PAVB expression in hiPSC-GABA neurons exposed to BMP4. The format is cell-based, human. Particulars: BMP4 exposure during week 3 (about DIV14 to DIV21); not with week 4 or weeks 3 and 4. The procedure:
(§1) After quantification, 1 μg of RNA was retrotranscribed with Superscript III First-Strand Synthesis SuperMix for qRT-PCR (Thermo Fisher Scientific Life Sciences). A total of 2 μl of cDNA was used for qPCR using the SYBR Select Master Mix. Real-Time PCR was run on a LightCycler 480 Instrument II (Roche Life Science). The cycling program for all genes is the following: • 1. 95° C. 10′ Initial denaturation step • 2. 95° C. 30″ • 3. 58° C. 30″ • 4. 72° C. 30″ go to 2 for 35 cycles • 5. Melting curve analysis.
(§2) iGABAergic neurons were prepared according to an adaptation of the method described in Example 5. During the GABAergic differentiation protocol, hiPSCs were exposed to BMP4, during week 3 only (i.e. about DIV14 to about DIV21), week 4 only (i.e. about DIV21 to about DIV28) or during week 3 and week 4 (i.e. about DIV14 to about DIV28). Following differentiation (i.e. DIV28) the iGABAergic neurons were assessed for expression of somatostatin (SST) and Parvalbumin (PVALB). BMP4 treated cells were then be tested for their ability to reverse neuropathic pain and compared to non-treated iGABAergic neurons using the SNI model as hereinbefore described.

A further test has as its system SST expression. Kind of test: qPCR of SST expression in hiPSC-GABA neurons exposed to BMP4. The format is cell-based, human. The conditions noted are these: BMP4 exposure during either or both of weeks 3 and 4. As for the experimental part: as §1, §2

B1: BMP4: agent which induces BMP signalling, added during GABAergic differentiation of hiPSCs (protein, UniProt P12644 293-408, looked up)
Bone morphogenetic protein 4: SPKHHSQRARKKNKNCRRHSLYVDFSDVGWNDWIVAPPGYQAFYCHGDCPFPLADHLNSTNHAIVQTLVNSVNSSIPKACCVPTELSAISMLYLDEYDKVVLKNYQEMVVEGCGCR
As to B1, in the test on PAVB expression, the “increase of PAVB expression” value was 6 fold. The “reduction of SST expression” value with SST expression worked out at 50%.
